Data published in the nanobody polyreactivity screen of Harvey et al. (2022).

Test: yeast display, Sf9 membrane polyspecificity reagent, FACS + sequencing; frameworks hold sequencing errors
Procedure, shortened: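 Synthetic nanobody libraries on Saccharomyces cerevisiae BJ5465 were galactose-induced for 36–48 hours, stained 1 hour at 4 °C with 10% biotinylated, detergent-solubilized Sf9 membrane reagent and enriched on streptavidin microbeads. FACS then separated cells into low and high (top ~1%) gates by anti-HA (expression) and streptavidin (reagent binding) fluorescence. Genes were colony-PCR amplified, MiSeq 2 × 250 sequenced and CDR-length filtered. A clone's polyreactivity label is that of its gate of origin.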

Sequence | polyreactivity (PSR sort gate)
QVQLVESGGGLVQAGGSLRLSCAAYYYNMGWYRQAPGKESELVASITWSDVSTYYADSVKRRFTISRDNAKNTVYLQMNSLKPEDTAVYYCAKGTWADAYGYWGQGTQVTVSS | low polyreactivity
QVQLVESGGGLVQAGGSLRLSCADSASIFRNAMGWYRQAPRKERELVAGIRWSDGSTNYADSVKGRFTISRDNANITVYLQMNSLKPEDTAVYYCAKGAYFARRMYYWGQGTQVTVSS | low polyreactivity
QVQLVESGGGLVQAGGSLRLSCADSASTLVVNGMGWYRQAPGKERELVASISSDGSTNYADSVKGRFTISRDNAKNTVYLQMNSLKPEDTAFYYCAADEGNGQASLSSNLYDYWGQGTQVTVSS | low polyreactivity
QVQLVESGGGLVQAGGSLRLSCADSGFILDYNTMGWYRQAPGKERELVAAISSSGDTTYYADSVKGRFTISRDNAKNTVYLQMNSLKPEDTAVYYCAREYGDGYEYWGQGTQVTVSS | low polyreactivity
QVQLVESGGGLVQAGGSLRLSCADSGFTFSSYAMGWYRQAPGKDRELVAAISTRGGSTYYADSVKGRFTISRDYANKTVYLQMNSLKPEDTAVYYCATGGRGGRRYEYWGQGTQVTVSS | low polyreactivity
QVQLVESGGGLVQAGGSLRLSCADSGFTFYFYAMGWYRQAPGKEREFIATINFISGSTYYADSVKGGVTISRDNAKNTVYLQMNSLKPEDTAVYYCNKPFPYYPDGPNGYDYWGQGTQVTVSS | low polyreactivity
QVQLVESGGGLVQAGGSLRLSCADSGITFDWNTMGWYRQAPGKERELVAAITFRSGSTYYADSVKGRFTISRDNAKNTVYLQMNSLKPEDTAVYYCNKDTAYTSPRFDYWGQGTQVTVSS | high polyreactivity
QVQLVESGGGLVQAGGSLRLSCADSGITFSRYAMGWYRQAPGKERELVAAITRRGGNTYYADSVKGRFTISRDIAKNTVYLQMNSLKPVDTAVYYCASGYTYYGGDYWGQGTQVTVSS | high polyreactivity
QVQLVESGGGLVQAGGSLRLSCADSGITFYGSAMGWYRQAPGQERELVAAISKSGGSTHYADSVKGRFTISRDNAKNTVYLQMNSLKPEDTAVYYCAAAYWTRLRRMDYWGQGTQVTVSS | low polyreactivity
QVQLVESGGGLVQAGGSLRLSCADSGNTFYVDTMGWYREAPGKESELVAAIYSTGDRTYYADSLKGRFTISRYKAKNTVYLQMNRLKPEDTAVYYWAARLYRGSLGYYFWGQVTQVTVSS | high polyreactivity
QVQLVESGGGLVQAGGSLRLSCADSGRIFATNAMGWYRHAPGKERELVATITRSAGRTYYADSVKGRFTISRDNAKNTVYLQMNSLKPEDTAVYYCAASYWDTERGYREYDYWGQGTQVTVSS | low polyreactivity
QVQLVESGGGLVQAGGSLRLSCADSGRIFGPYAMGWYRKAPGKERELVAAIRASSSTYYADSVKGRFTISRDNAKNTVYLQMNSLKPEDTAVYYCAADWYYGYAWKYGYWGQGTQVTVSS | low polyreactivity
QVQLVESGGGLVQAGGSLRLSCADSGRIFGTSAMGWYRQAPGKERELVATISYSSGRTYYADSVKGRFTISRDNAKNTVYLQMNSLKPEDTAVYYCARRRRSGSRQYYYWGQGTQVTVSS | high polyreactivity
QVQLVESGGGLVQAGGSLRLSCADSGRIFGYNAMGWYRQAPGKEREFVAAITTSGGSTYYADSVKGRFTISRDNAKKTVFLQMTSLKPEDTAVYYCARDSLHVFYPYASDDYWGQGTQVTVSS | low polyreactivity
QVQLVESGGGLVQAGGSLRLSCADSGRIFVGNAMGWYRQAHGKERELVAAITSSGGSTYYADSVKGRFTISRDNAKNTVYLQMNSLKPEDTAVYYCAARVPYRLKAQPFSNRGYYWGQGTQVTVSS | high polyreactivity
QVQLVESGGGLVQAGGSLRLSCADSGRIFYANAMGWYRQAPGKERELVAAISSGGSTYYADSVKGRFTISRDNAKNTVYLQMNSLKPEDTAVYYCAVYTHKIVRPEYDYWGQGTQVTVSA | low polyreactivity

Sequence | polyreactivity (PSR sort gate)
QVQLVESGGGLVQAGGSLRLSCADSGRIITVYDMGWYRQAPGKEREYVAAISDTDSSTYADSVKGRFTISRDNAKNTVYLQMNSLKPEDTAVYYCNAVGDIFGRVSTEYEYWGQGTQVTVSA | low polyreactivity
QVQLVESGGGLVQAGGSLRLSCADSGRIIYKNAMGWYRQAPGKERELVAAITSSGGSTYYADSVKGRFTISRDNAKNTVYLQMNSLTPVDTAVYYCAAYAYVRFGKLNYWGQGTQVTVSS | low polyreactivity
QVQLVESGGGLVQAGGSLRLSCADSGRTFGSNAMGWYRQAPGKERELVAAISSTVSTNYADSVKGRFTISRDNAKNTVYLQMNSLKPEDTAVYYCNVTRHYSYVSEYDYWGQGTQVTVSS | low polyreactivity
QVQLVESGGGLVQAGGSLRLSCADSGRTFRGNAMGWYRQAPGKERELVAAISWSGDSTYYADSVKGRFTISRDNAKNSVYLQMNSLKPEDTAVYYCNRDYGLQRYRGWYQYNYWGQGTQVTVSS | low polyreactivity
QVQLVESGGGLVQAGGSLRLSCADSGRTFTKYAMGRYRQAPGKERELVAAISRSGGSTYYADSVKGRFTISRVNAKNTVYLQMNSLKPEDTAVYYCAARRYRASSRGYGYWGQGTQVTVSS | high polyreactivity
QVQLVESGGGLVQAGGSLRLSCADSGRTIDVYAMGWYRHAPGKEREFVAAISTGASTCYADSVKGRFTISRDNAKNTVYLQMNSLKTEDTGVYYCAKRVTRWYGYWGQGTQVTVSA | high polyreactivity
QVQLVESGGGLVQAGGSLRLSCADSGRTLSVYAMGWYRQAPGKESELVAAITWRGGSTYYADSVKGRFTISRDNAKNTVYLQMNSLKPEDTAVYYCAAEDYTYNGGGFEYWGQGTQVTVAS | low polyreactivity
QVQLVESGGGLVQAGGSLRLSCADSGRTLVRYTMRGYRQAPGKERDLVASISQRGGTTYYADSVKGRFTISRDNAKNTVYLQMNSLKPEDTAVYYCAAGIHGRYARDWYEYWGQGTQVTVSS | low polyreactivity
QVQLVESGGGLVQAGGSLRLSCADSGSIFAYYAMGWYRQAPGKERELVADITSSGGITYYADSVKGRFTISRDNAKNTVYLQMNSLKPEDTAVYYCNADSLAIVGGSYPYDYWGQGTQVTVSS | low polyreactivity
QVQLVESGGGLVQAGGSLRLSCADSGSIFDDYTMGWYRQAPGKERELVAVITTGGTTYYADSVKGRFTISRDNAKNTVYLQMNSLKPEDTAVYYCAAKEANRYRRYYWGQGTQVTVSS | high polyreactivity
QVQLVESGGGLVQAGGSLRLSCADSGSIFDFNALGWYRQAPRKERELVAAITWSGGSTYYSDSVKGRFTISRDYAKNTVYLQMNSLKPEDTAVYYCAADSLYDDFYYWGQGTQVTVSS | low polyreactivity
QVQLVESGGGLVQAGGSLRLSCADSGSIFGVNVMGWYRQAPGKDRELVAAITSIGGRTYYADSVKGRFTISRDNAKNTVYLQMNSLKPEDTAVYYCNADYTGAEYDYWGQGTQVTVSS | low polyreactivity
QVQLVESGGGLVQAGGSLRLSCADSGSIFLWNTMGWYRQAPGKERELVAAINFSGTRTYYADSVKGRFTISRDNAKNTVYLQMNSLKPEDTAVYYCNARTSRRLDYDYWGQGTQVTVSS | high polyreactivity
QVQLVESGGGLVQAGGSLRLSCADSGSIFSPYAMGWYRQAPGKERELVAAITNSGGRTYYADSVKGRFTISRDNAKNTVYLQMNSLKPEDTAVYYCNADYGKHHPDYYYWGQGTQVTVSS | low polyreactivity
QVQLVESGGGLVQAGGSLRLSCADSGSIFVKNAMGWYRQAPGKERELVATISTGGRTYYADSVKGRFTISLDNAKNTVYLQMNSLKPEDTAVYYCATDFYPRYLLRTYRPYYYWGQGTQVTVSS | low polyreactivity
QVQLVESGGGLVQAGGSLRLSCADSGSIFWLYAMGWYRQAPGKERELVAAIDSGDSTKYADSVKGRFTISRDNAKNTVYLQMNSLKPEDTAVYYCNASRRYHVRAPYDYWGQGTQVTVSS | low polyreactivity
